Substitutions are numbered along the chain they refer to. Names may count otherwise.
B1: R1-016 (antibody, V domains shown)
VH: EVQLLQSGGGLVKPGGSLRLSCAASGFTFSSYAMSWVRQAPGKGLEWVSYISDDGSLKYYADSVKGRFTISRDNSKNTLYLQMNSLRAEDTAVYYCARHPYWYGGQLDLWGQGTLVTVSS
VL: SYELTQPPSVSVSPGQTASITCSGDSLGSYFVHWYQQKPGQSPVLVIYDDSKRPSGIPERFSGSNSGNTATLTISGTQAMDEADYYCSAFTHNSDVFGGGTKLTVL
notes: only the variable regions are written; source: HEK293, transient, purified from conditioned medium (protein A, TMAE, HIC)
B2: R2-001 (antibody, V domains shown)
VH: B1 VH
VL: B1 VL with E3V, S13A, Q16K, S19R
notes: R2-001_HC: as the VH of m17 (R1-016), on which R2-001 was built; R2-001_LC: as the VL of m17 (R1-016) with FW1 changed to that of IGLV3-21*01; only the variable regions are written; also called round 2 parental R2-001; R2-001_HC with R2-001_LC; source: HEK293, transient, purified from conditioned medium (protein A, TMAE, HIC)
B3: R2-006 (antibody, V domains shown)
VH: B1 VH
VL: B1 VL with E3V, S13A, Q16K, S19R, S51K
notes: as the VH of m20 (R2-001_HC); as the VL of m20 (R2-001_LC) with S52K (Kabat); only the variable regions are written; source: HEK293, transient, purified from conditioned medium (protein A, TMAE, HIC)
B4: R2-020 (antibody, V domains shown)
VH: B1 VH
VL: B1 VL with E3V, S13A, Q16K, S19R, D50N
notes: as the VH of m20 (R2-001_HC); as the VL of m20 (R2-001_LC) with D51N (Kabat); only the variable regions are written; source: HEK293, transient, purified from conditioned medium (protein A, TMAE, HIC)
B5: AB-001 (antibody, V domains shown)
VH: B1 VH with Q6E, K13Q, R98K
VL: B1 VL with K52N
notes: VH of AB-001; VL of AB-001; only the variable regions are written; also called parental AB-001; parental clone; source: HEK293, transient, purified from conditioned medium (protein A, TMAE, HIC)
B6: R2-011 (antibody, V domains shown)
VH: B1 VH with Q106K
VL: B1 VL with E3V, S13A, Q16K, S19R
notes: as the VH of m20 (R2-001_HC) with Q100bK; as the VL of m20 (R2-001_LC); only the variable regions are written; source: HEK293, transient, purified from conditioned medium (protein A, TMAE, HIC)
B7: R2-012 (antibody, V domains shown)
VH: B1 VH with D53K
VL: B1 VL with E3V, S13A, Q16K, S19R
notes: as the VH of m20 (R2-001_HC) with D52aK; as the VL of m20 (R2-001_LC); only the variable regions are written; source: HEK293, transient, purified from conditioned medium (protein A, TMAE, HIC)
B8: R2-013 (antibody, V domains shown)
VH: B1 VH with D53N
VL: B1 VL with E3V, S13A, Q16K, S19R
notes: as the VH of m20 (R2-001_HC) with D52aN; as the VL of m20 (R2-001_LC); only the variable regions are written; source: HEK293, transient, purified from conditioned medium (protein A, TMAE, HIC)
B9: R2-014 (antibody, V domains shown)
VH: B1 VH with D54Q
VL: B1 VL with E3V, S13A, Q16K, S19R
notes: as the VH of m20 (R2-001_HC) with D53Q; as the VL of m20 (R2-001_LC); only the variable regions are written; source: HEK293, transient, purified from conditioned medium (protein A, TMAE, HIC)
B10: R2-015 (antibody, V domains shown)
VH: B1 VH with D62N
VL: B1 VL with E3V, S13A, Q16K, S19R
notes: as the VH of m20 (R2-001_HC) with D61N; as the VL of m20 (R2-001_LC); only the variable regions are written; source: HEK293, transient, purified from conditioned medium (protein A, TMAE, HIC)
B11: R2-016 (antibody, V domains shown)
VH: B1 VH with D108N
VL: B1 VL with E3V, S13A, Q16K, S19R
notes: as the VH of m20 (R2-001_HC) with D101N; as the VL of m20 (R2-001_LC); only the variable regions are written; source: HEK293, transient, purified from conditioned medium (protein A, TMAE, HIC)
B12: R2-017 (antibody, V domains shown)
VH: B1 VH with D108Y
VL: B1 VL with E3V, S13A, Q16K, S19R
notes: as the VH of m20 (R2-001_HC) with D101Y; as the VL of m20 (R2-001_LC); only the variable regions are written; source: HEK293, transient, purified from conditioned medium (protein A, TMAE, HIC)
B13: R2-018 (antibody, V domains shown)
VH: B1 VH
VL: B1 VL with E3V, S13A, Q16K, S19R, D25N
notes: as the VH of m20 (R2-001_HC); as the VL of m20 (R2-001_LC) with D26N (Kabat); only the variable regions are written; source: HEK293, transient, purified from conditioned medium (protein A, TMAE, HIC)
B14: R2-019 (antibody, V domains shown)
VH: B1 VH
VL: B1 VL with E3V, S13A, Q16K, S19R, D49L
notes: as the VH of m20 (R2-001_HC); as the VL of m20 (R2-001_LC) with D50L (Kabat); only the variable regions are written; source: HEK293, transient, purified from conditioned medium (protein A, TMAE, HIC)
B15: R2-022 (antibody, V domains shown)
VH: B1 VH
VL: B1 VL with E3V, S13A, Q16K, S19R, D95N
notes: as the VH of m20 (R2-001_HC); as the VL of m20 (R2-001_LC) with D96N (Kabat); only the variable regions are written; source: HEK293, transient, purified from conditioned medium (protein A, TMAE, HIC)

tested on: not listed separately; test: AC-SINS; self-association assay, as in Avery et al. [35]; score = smoothed max absorbance of the antibody sample minus that of the average blank (PBS); scores >=11 considered high; conditions: other: AC-SINS

Question: Which AC-SINS Score does the source give for B1 here?
Answer: Its AC-SINS Score is 24.

Question: Which AC-SINS Score does the source give for B2 here?
Answer: The AC-SINS Score was 24.

Question: Which AC-SINS Score does the source give for B3 here?
Answer: Its AC-SINS Score is 25.

Question: Which AC-SINS Score does the source give for B4 here?
Answer: The AC-SINS Score was 4.

target: T1, human PDGF-BB (platelet derived growth factor B homodimer) (human, UniProt P01127 82-190); test: SPR; Biacore T200, off-rate screen; antibody captured (~70 to 100 RU) by anti-human IgG amine-coupled to a CM5 chip; human PDGF-BB injected at a single 2.5 nM for 170 s, dissociation 300 s; HBS-EP+ N (10 mM HEPES, 500 mM NaCl, 3 mM EDTA, 0.05% Tween20, pH 7.4); 25 C; conditions: both partners purified
T1 construct: Platelet derived growth factor B, human, homodimer, bought from PeproTech; the printed catalogue number may stand for 100-14B; source: bought: PeproTech, Catalog 100-148
T1 sequence (P01127 82-190): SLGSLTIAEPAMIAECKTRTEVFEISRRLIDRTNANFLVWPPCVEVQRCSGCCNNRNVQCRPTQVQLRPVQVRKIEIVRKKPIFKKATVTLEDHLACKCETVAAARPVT

Question: Which koff does the source give for B5 here?
Answer: Its koff is 0.000319 s⁻¹.

target: T2, human PDGF-BB (platelet derived growth factor B homodimer) (human, UniProt P01127); test: as above; conditions: both partners purified
T2 construct: Platelet derived growth factor B, human, homodimer, bought from PeproTech; the printed catalogue number may stand for 100-14B; source: bought: PeproTech, Catalog 100-148
T2 sequence (P01127 82-190): as above

Question: With B1 as the binder, how does the koff read?
Answer: Its koff is 0.000289 s⁻¹.

Question: Which koff does the source give for B2 here?
Answer: The koff was 0.000417 s⁻¹.

Question: For B3, which koff is on record?
Answer: Its koff is 0.000366 s⁻¹.

Question: Which koff does the source give for B4 here?
Answer: Its koff is 0.000386 s⁻¹.

Question: For B6, which koff is on record?
Answer: The koff was 0.000414 s⁻¹.

Question: With B7 as the binder, how does the koff read?
Answer: The koff was 0.000347 s⁻¹.

Question: Which koff does the source give for B8 here?
Answer: The koff was 0.000344 s⁻¹.

Question: With B9 as the binder, how does the koff read?
Answer: Its koff is 0.000396 s⁻¹.

Question: Which koff does the source give for B10 here?
Answer: The koff was 0.000834 s⁻¹.

Question: Which koff does the source give for B11 here?
Answer: Its koff is 0.000266 s⁻¹.

Question: For B12, which koff is on record?
Answer: The koff was 0.000673 s⁻¹.

Question: With B13 as the binder, how does the koff read?
Answer: Its koff is 0.000386 s⁻¹.

Question: With B14 as the binder, how does the koff read?
Answer: The koff was 0.000673 s⁻¹.

Question: For B15, which koff is on record?
Answer: The koff was 0.000361 s⁻¹.

target: T1, human PDGF-BB (platelet derived growth …); test: SPR; Biacore T200, full kinetics; antibody captured by anti-human IgG on a CM5 chip; human PDGF-BB at 20, 10, 5, 2.5 and 1.25 nM, 50 s injection; HBS-EP+ N; 25 C; 1:1 Langmuir fit; conditions: both partners purified

Question: For B5, which Kd is on record?
Answer: The Kd was 0.0948 ± 0.0292 nM.

Question: And the koff?
Answer: Its koff is 0.000457 s⁻¹.

Question: What about the kon of the same binder?
Answer: Its kon is 5.05e+06 M⁻¹ s⁻¹.

target: T2, human PDGF-BB (platelet derived growth …); test: as above; conditions: both partners purified

Question: Which Kd does the source give for B1 here?
Answer: Its Kd is 0.0743 ± 0.0137 nM.

Question: And the koff?
Answer: Its koff is 0.000357 s⁻¹.

Question: What about the kon of the same binder?
Answer: The kon was 4.88e+06 M⁻¹ s⁻¹.

Question: For B2, which Kd is on record?
Answer: The Kd was 0.102 ± 0.0323 nM.

Question: And the koff?
Answer: Its koff is 0.000292 s⁻¹.

Question: And the kon?
Answer: Its kon is 3.09e+06 M⁻¹ s⁻¹.

Question: Which results are given for B3?
Answer: Kd: 0.0888 ± 0.0295 nM; koff: 0.000336 s⁻¹; kon: 3.97e+06 M⁻¹ s⁻¹

Question: Which Kd does the source give for B4 here?
Answer: Its Kd is 0.299 ± 0.00683 nM.

Question: And the koff?
Answer: Its koff is 0.00061 s⁻¹.

Question: And the kon?
Answer: The kon was 2.04e+06 M⁻¹ s⁻¹.

target: not listed separately; test: AC-SINS; self-association assay, as in Avery et al. [35]; score = smoothed max absorbance of the antibody sample minus that of the average blank (PBS); scores >=11 considered high; conditions: other: AC-SINS; remark: another data set of the same source

Question: With B5 as the binder, how does the AC-SINS Score read?
Answer: Its AC-SINS Score is 22.

target: T2, human PDGF-BB (platelet derived growth …); test: SPR; Biacore T200, full kinetics; antibody captured by anti-human IgG on a CM5 chip; human PDGF-BB at 20, 10, 5, 2.5 and 1.25 nM, 50 s injection; HBS-EP+ N; 25 C; 1:1 Langmuir fit; conditions: both partners purified; remark: another data set of the same source

Question: Which Kd does the source give for B3 here?
Answer: Its Kd is 0.103 nM.
